The results in this text go back to patent US6379959 (UNIVERSITAT AUTONOMA DE BARCELONA, dated 2002).

Positions of bridges follow the written chain, without caps; N, C: chain ends. No end group written: not given here.

For experiment [1], the target named is T1, receptor for epidermic growth factor (EGF-R) on Capan-1 and A431 cells (human (human cell line Capan-1), UniProt P00533 25-1210).
T1 construct: whole, on cells; both are called EGF receptors; also called EGF receptor; receptor of EGF
The experiment can be described thus: competition with 125I-EGF on Capan-1 cells, two-site fit (Graphpad Inplot4); low affinity site. As for the experimental part: (§1) From the previous adjustment, the value of $IC50$ for the two binding sites and the percentage of each type of binding sites was determined.

Experiment [2] concerns the target T1, receptor for epidermic growth factor …. As to the kind of experiment: competition with 125I-EGF on Capan-1 cells, two-site fit (Graphpad Inplot4); high affinity site. As for the experimental part: as §1

B1: potato carboxypeptidase inhibitor, isoform IIa, recombinant (other)
chain: EQHADPICNKPCKTHDDCSGAWFCQACWNSARTCGPYVG
modifications: disulfide 12-27, 18-34, 8-24
notes: Secreted from E. coli MC1061 (pIMAM3, OmpA signal peptide directly before the first codon of native PCI); also called PCI; rPCI
With B1, the IC50 (as a rule, the point on the concentration scale where inhibition reaches its midpoint) was 579 µM in experiment [1] and 0.014 nM in experiment [2].
